In US20160002311A1 (Novo Nordisk, published 2016):
Read-outs that look alike come from different tables or passages of the source. Numbered stars: 1 amine (or outer) side, 2 acyl side, 3 side chain; on linkers, the order of the positions; unused ones are H or OH. Square brackets hold non-standard residues; d marks the D form. Side chains are listed from the residue outwards. Ends that are not written are not given here. * marks the point of attachment. C18 diacid = O=C(O)CCCCCCCCCCCCCCCCC(=O)*; γGlu = O=C(O)[C@H](CCC(=O)[*:2])N[*:1]; Orn = NCCC[C@H](N)C(=O)O; AEEA = NCCOCCOCC(=O)O

B1: N^ε24-([2-[2-[2-[[2-[2-[2-[[(4S)-5-hydroxy-4-[(18-hydroxy-18-oxooctadecanoyl)amino]-5-oxopentanoyl]amino]ethoxy]ethoxy]acetyl]amino]ethoxy]ethoxy]acetyl])[D-Ser … (peptide)
peptide: H[dS]QGTFTSDYSKYLDEQAARDFVK([AEEA-AEEA-γGlu-C18 diacid])WLLNT-NH2
modifications: N-terminus assumed
SMILES: CC(C)C[C@H](NC(=O)[C@H](Cc1ccc(O)cc1)NC(=O)[C@H](CCCCN)NC(=O)[C@H](CO)NC(=O)[C@H](Cc1ccc(O)cc1)NC(=O)[C@H](CC(=O)O)NC(=O)[C@H](CO)NC(=O)[C@@H](NC(=O)[C@H](Cc1ccccc1)NC(=O)[C@@H](NC(=O)CNC(=O)[C@H](CCC(N)=O)NC(=O)[C@@H](CO)NC(=O)[C@@H](N)Cc1c[nH]cn1)[C@@H](C)O)[C@@H](C)O)C(=O)N[C@@H](CC(=O)O)C(=O)N[C@@H](CCC(=O)O)C(=O)N[C@@H](CCC(N)=O)C(=O)N[C@@H](C)C(=O)N[C@@H](C)C(=O)N[C@@H](CCCNC(=N)N)C(=O)N[C@@H](CC(=O)O)C(=O)N[C@@H](Cc1ccccc1)C(=O)N[C@H](C(=O)N[C@@H](CCCCNC(=O)COCCOCCNC(=O)COCCOCCNC(=O)CC[C@H](NC(=O)CCCCCCCCCCCCCCCCC(=O)O)C(=O)O)C(=O)N[C@@H](Cc1c[nH]c2ccccc12)C(=O)N[C@@H](CC(C)C)C(=O)N[C@@H](CC(C)C)C(=O)N[C@@H](CC(N)=O)C(=O)N[C@H](C(N)=O)[C@@H](C)O)C(C)C
B2: [K^17,K^18, E^21, L^27] Glucagon (peptide)
peptide: HSQGTFTSDYSKYLDSKKAQEFVQWLLNT
B3: N^ε24-[2-[2-[2-[[2-[2-[2-[[(4S)-4-carboxy-4-(17-carboxyheptadecanoylamino)butanoyl]amino]ethoxy]ethoxy]acetyl]amino]ethoxy]ethoxy]acetyl]-[Lys^17,Lys^18,Glu^21, … (peptide)
peptide: HSQGTFTSDYSKYLDSKKAQEFVK([AEEA-AEEA-γGlu-C18 diacid])WLLDT
B4: N^ε29-[2-[2-[2-[[2-[2-[2-[[(4S)-4-carboxy-4-(17-carboxyheptadecanoylamino)butanoyl]amino]ethoxy]ethoxy]acetyl]amino]ethoxy]ethoxy]acetyl]-[Lys^17,Lys^18,Glu^21, … (peptide)
peptide: HSQGTFTSDYSKYLDSKKAQEFVQWLLNK([AEEA-AEEA-γGlu-C18 diacid])
B5: N^ε24-[2-[2-[2-[[2-[2-[2-[[(4S)-4-carboxy-4-(17-carboxyheptadecanoylamino)butanoyl]amino]ethoxy]ethoxy]acetyl]amino]ethoxy]ethoxy]acetyl]-[Lys^17,Lys^18,Glu^21, … (peptide)
peptide: HSQGTFTSDYSKYLDSKKAQEFV[Orn]([AEEA-AEEA-γGlu-C18 diacid])WLLST

Legend:
glucagon receptor [1] = biological target: T1, glucagon receptor (UniProt P47871 26-477, limits assumed); test: cell-based or functional assay
T1 sequence (P47871 26-477 limits assumed): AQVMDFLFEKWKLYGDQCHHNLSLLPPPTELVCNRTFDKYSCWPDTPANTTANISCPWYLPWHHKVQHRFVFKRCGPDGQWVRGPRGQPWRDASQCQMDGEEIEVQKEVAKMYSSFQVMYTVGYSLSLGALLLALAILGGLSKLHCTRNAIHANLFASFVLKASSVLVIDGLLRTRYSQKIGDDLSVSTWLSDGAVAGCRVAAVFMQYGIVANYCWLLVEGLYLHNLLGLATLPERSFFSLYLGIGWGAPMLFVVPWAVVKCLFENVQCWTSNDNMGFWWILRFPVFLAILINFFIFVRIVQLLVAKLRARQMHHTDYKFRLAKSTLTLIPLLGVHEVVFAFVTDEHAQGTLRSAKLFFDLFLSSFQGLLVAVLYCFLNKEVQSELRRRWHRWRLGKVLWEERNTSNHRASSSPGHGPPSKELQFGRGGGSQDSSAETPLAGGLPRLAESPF

glucagon receptor [2] = biological target: T1, glucagon receptor; test: cell-based or functional assay; remark: listed apart in the source

Row | Binder | Assay (I) Glucagon [EC50] (glucagon receptor [1]) | Assay (I) Glucagon [EC50] (glucagon receptor [2])
1 | B1 | 0.137 nM | –
2 | B2 | – | 0.003 nM
3 | B3 | – | 0.051 nM
4 | B4 | – | 0.053 nM
5 | B5 | – | 0.036 nM
